Article PMC3479137

Columns and labels:
[1] = biological target: fHbp_10 (1.P10) with D184 replaced by K184 (Neisseria meningitidis); test: SPR; ProteOn XPR36 (BioRad); fHbp immobilized on a ProteOn GLM sensor chip; increasing concentrations of fH67 injected at 40 µl/min, dissociation 300 seconds; KD calculated with ProteOn manager software; average KD
[2] = biological target: fHbp_10 (1.P10), factor H binding protein with aspartic acid at position 184 (Neisseria meningitidis) (UniProt E6MV22); test: as above
Sequence of fHbp_10 (1.P10), factor H binding protein with aspartic acid at position 184 (Neisseria meningitidis) (E6MV22 20-274): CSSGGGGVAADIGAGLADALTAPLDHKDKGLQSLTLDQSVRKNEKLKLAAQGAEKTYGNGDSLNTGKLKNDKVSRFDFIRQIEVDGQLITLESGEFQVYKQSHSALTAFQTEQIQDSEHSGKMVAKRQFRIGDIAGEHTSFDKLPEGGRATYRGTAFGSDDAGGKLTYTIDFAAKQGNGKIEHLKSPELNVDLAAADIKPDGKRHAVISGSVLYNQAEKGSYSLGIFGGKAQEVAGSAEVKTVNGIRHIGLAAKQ

[3] = biological target: fHbp subfamily B (Neisseria meningitidis) (UniProt Q9JXV4); conditions: cited from earlier work
Sequence of fHbp subfamily B (Neisseria meningitidis) (Q9JXV4 20-274): as the sequence (E6MV22 20-274) above

[4] = biological target: fHbp subfamily A (Neisseria meningitidis) (UniProt Q9JXV4); conditions: cited from earlier work
Sequence of fHbp subfamily A (Neisseria meningitidis) (Q9JXV4 20-274): as the sequence (E6MV22 20-274) above

Sequence of factor H (P08603 19-1231): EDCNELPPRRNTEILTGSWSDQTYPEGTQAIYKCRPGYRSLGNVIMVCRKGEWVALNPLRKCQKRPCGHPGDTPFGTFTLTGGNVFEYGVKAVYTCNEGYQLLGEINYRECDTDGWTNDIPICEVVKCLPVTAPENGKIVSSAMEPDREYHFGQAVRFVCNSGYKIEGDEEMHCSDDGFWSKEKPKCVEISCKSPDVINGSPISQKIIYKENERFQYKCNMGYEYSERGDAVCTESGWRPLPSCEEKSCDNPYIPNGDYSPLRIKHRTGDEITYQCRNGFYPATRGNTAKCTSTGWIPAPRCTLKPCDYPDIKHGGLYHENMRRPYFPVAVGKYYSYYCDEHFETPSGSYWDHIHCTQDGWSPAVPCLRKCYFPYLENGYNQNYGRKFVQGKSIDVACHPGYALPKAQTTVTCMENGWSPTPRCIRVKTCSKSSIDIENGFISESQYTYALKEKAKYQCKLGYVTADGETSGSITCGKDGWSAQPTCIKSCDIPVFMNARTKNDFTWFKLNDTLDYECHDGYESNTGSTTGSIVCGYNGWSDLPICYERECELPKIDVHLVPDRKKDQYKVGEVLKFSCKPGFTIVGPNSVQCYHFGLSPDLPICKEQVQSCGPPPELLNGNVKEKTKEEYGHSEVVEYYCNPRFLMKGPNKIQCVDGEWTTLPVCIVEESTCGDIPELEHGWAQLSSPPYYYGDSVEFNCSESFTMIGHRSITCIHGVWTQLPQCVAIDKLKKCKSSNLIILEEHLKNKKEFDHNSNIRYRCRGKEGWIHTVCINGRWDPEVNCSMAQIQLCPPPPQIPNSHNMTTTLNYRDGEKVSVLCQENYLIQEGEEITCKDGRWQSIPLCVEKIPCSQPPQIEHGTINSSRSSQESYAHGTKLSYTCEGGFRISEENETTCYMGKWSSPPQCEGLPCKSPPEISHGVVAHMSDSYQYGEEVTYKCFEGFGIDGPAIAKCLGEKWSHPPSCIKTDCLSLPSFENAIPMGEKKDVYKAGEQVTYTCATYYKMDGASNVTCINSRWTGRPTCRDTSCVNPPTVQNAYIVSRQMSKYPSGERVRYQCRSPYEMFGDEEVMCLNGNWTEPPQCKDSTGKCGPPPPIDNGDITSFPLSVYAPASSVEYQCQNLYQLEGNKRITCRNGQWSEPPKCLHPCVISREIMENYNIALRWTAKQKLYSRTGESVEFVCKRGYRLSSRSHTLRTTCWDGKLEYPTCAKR

Substance	Kd [1] [nM]	Kd [2] [nM]	Kd [3] [nM]	Kd [4] [nM]
recombinant purified human fH (SCR67) (from UniProt P08603 19-1231) (domain or fragment)	26	17.4		
factor H (from UniProt P08603)			153	29
